Measurements from patent US20260242721A1, “A SYNTHETIC CELLULAR ADVANCED SIGNAL ADAPTER (SCASA) SYSTEM” (Danmarks Tekniske Universitet, priority 2023, published 2026).

Tests used:
[1] = target: Schizosaccharomyces pombe P-factor pheromone receptor (Mam2) (Schizosaccharomyces pombe) (UniProt Q00619); test: cell-based or functional assay
[2] = target: Aga2-HA-PAS40-(G4S)3-CD19-myc yeast surface display fusion protein (CD19.1 ECD displayed on SCASA yeast aAPCs) (synthetic construct, CD19 part modified from human); test: cell-based or functional assay
[3] = target: CD19 on the human CD19+ NALM6 B cell precursor leukemia cell line (human) (UniProt P15391); test: cell-based or functional assay
[4] = test system: pheromone response pathway (PRP)
Procedure: To investigate the dose-response features of the selected promoters PMFA2, PFUS1, PAGA2, PFIG.1, PMFA1, PYCL076W, PHPF1, PIME4, PCSS1, PTDH3, PPGK1 and P6XLexOLEU2 upon GPCR stimulation the strains were pre-grown in SC (24 hrs.), whereafter, for each replicate, cells were transferred to 200 μL volumes comprising a 10-fold dilution series of α-factor (0-100 μM) (GenScript) dissolved in SC+1% DMSO, and stimulated for 5 hrs. (30° C., 250 r.p.m.). Flow cytometric measurement was done to quantify yEGFP levels (B525/45-A) and PRP-regulated morphological changes, denoted shmooing (SSC-A) using a NovoCyte Quanteon flow cytometer (Agilent). Data represents means of median fluorescence intensity (mMFI) for three biological replicates and standard deviations hereof. Two-way ANOVA with Tukey's multiple comparisons test was conducted for all conditions.

CD19 = test: Yeast surface display (YSD) of CD19, antibody staining and flow cytometry; format: cell-based, Saccharomyces cerevisiae
Procedure: To investigate the different variants of CD19 modules, yeast cells were grown and, in some cases, stimulated to present CD19 differentially, whereafter they were stained with antibodies and assessed by flow cytometry. Flow cytometric measurement was done using a NovoCyte Quanteon flow cytometer (Agilent) to quantify CD19 by staining with mouse anti-CD19 (FMC63) (Absolute Antibody; Ab00613) and goat anti-mouse-AF647 (polyclonal) (Thermo Fisher; A-21236), detected in R667/30-H, as well as rabbit anti-HA (RM305) (Thermo Fisher; MA5-27915) and goat anti-rabbit-AF488 (polyclonal) (Thermo Fisher; A-11008), detected in B525/45-H (see FIG. 7), and to measure PRP-regulated morphological changes (SSC-H). […] Data represents means of median fluorescence intensity (mMFI) for three biological replicates and standard deviations hereof. Two-way ANOVA with multiple comparisons tests was conducted for all conditions. Histograms are representative replicates. No SSC-normalization was used in the evaluation of the effector module, unlike in Example 1, as it is the absolute response of all effects combined that constitute the total output that CAR T cells interpret and react to.
For conventional YSD using strain EBY100 and pCT-plasmid-based expression (Chao et al. 2006, Isolating and engineering human antibodies using yeast surface display. Nature Protocols, 1(2), 755-768), strains were pre-grown in SC −trp, then transferred to 5 mL SC −trp +2% Gal for induction of YSD or +2% Gluc as a negative control (24 hrs., 30° C., 250 r.p.m.). NALM6 was cultured in RPMI 1640 medium (ATCC modification) (Thermo Fisher) with 10% fetal bovine serum and 1% pen-strep (RPMI+10% FBS) at 37° C. with 5% CO2. For the investigation of PGAL1-titratability of DIX41 with pMAD58 and DIX74, strains were pre-grown in SC −ura and SC, respectively, then transferred to SC −ura and SC, respectively, with varying concentrations of galactose (0.0002%-2% Gal), using raffinose as compensating carbon source, and YSD was induced for 24 hrs. (30° C., 250 r.p.m.). Strains were similarly grown in 2% Gluc as negative controls. For the investigation of the strain library with constitutive and dynamically regulated expression of CD19 (Background strain/No YSD, PPGK1-Empty, PMFA2-CD19, PFUS1-CD19, PFIG.1-CD19, PMFA1-CD19, PHPF1-CD19, PTDH3-CD19, PPGK1-CD19) the strains were pre-grown in SC, whereafter, for each replicate, 50.000 cells were transferred to 300 μL volumes comprising a 10-fold dilution series of α-factor (0-100 μM) (GenScript) dissolved in SC+1% DMSO, and stimulated for 20 hrs. (30° C., 250 r.p.m.).

Sequence of UniProt P15391 (P15391 20-556): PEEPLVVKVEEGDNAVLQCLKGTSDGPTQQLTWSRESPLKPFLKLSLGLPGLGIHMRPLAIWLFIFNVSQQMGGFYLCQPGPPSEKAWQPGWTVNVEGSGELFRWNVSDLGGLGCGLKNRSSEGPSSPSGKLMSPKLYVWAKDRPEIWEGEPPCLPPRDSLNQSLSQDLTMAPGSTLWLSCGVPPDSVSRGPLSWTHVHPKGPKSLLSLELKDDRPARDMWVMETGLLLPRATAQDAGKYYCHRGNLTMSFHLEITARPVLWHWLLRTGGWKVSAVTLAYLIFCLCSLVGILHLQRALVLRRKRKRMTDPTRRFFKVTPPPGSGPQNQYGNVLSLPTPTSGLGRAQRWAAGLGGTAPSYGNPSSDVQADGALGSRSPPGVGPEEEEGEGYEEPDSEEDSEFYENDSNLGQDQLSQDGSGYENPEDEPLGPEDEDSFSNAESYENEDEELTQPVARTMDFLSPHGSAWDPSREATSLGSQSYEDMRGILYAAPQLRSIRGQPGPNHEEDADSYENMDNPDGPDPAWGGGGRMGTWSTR
Sequence of UniProt Q00619 (Q00619 other isoform, or with tags, fused parts or gaps): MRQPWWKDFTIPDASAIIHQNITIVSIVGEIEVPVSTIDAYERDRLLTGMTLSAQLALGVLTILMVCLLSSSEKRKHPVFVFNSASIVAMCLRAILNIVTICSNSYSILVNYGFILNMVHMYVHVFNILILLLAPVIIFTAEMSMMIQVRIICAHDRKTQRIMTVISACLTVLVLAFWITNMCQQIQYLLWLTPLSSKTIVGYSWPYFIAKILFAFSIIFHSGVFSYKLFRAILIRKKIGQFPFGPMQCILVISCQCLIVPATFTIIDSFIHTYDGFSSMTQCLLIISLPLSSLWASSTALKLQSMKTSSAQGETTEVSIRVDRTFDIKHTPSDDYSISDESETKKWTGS

For P-factor (GenScript) (peptide), which fold change of CD19 expression (PFUS1 cassette, anti-HA staining), strain DIX60, pH=5, 0-10 µM P-factor [1] is on record?
The fold change of CD19 expression (PFUS1 cassette, anti-HA staining), strain DIX60, pH=5, 0-10 µM P-factor was 249 fold.

How did the fold specific activation of CAR+ Jurkat NFAT-Luc cells, yeast PFUS1-CD19 at 0.01 µM α-factor [2] turn out when “anti-CD19 CAR (FMC63-CD8α-4-1BB-CD3ζ) (receptor)” was run?
The fold specific activation of CAR+ Jurkat NFAT-Luc cells, yeast PFUS1-CD19 at 0.01 µM α-factor was 3.2 fold.

What about the fold specific activation of CAR+ Jurkat NFAT-Luc cells, yeast PTDH3-CD19 at 0.001 µM α-factor [2] of the same molecule?
The fold specific activation of CAR+ Jurkat NFAT-Luc cells, yeast PTDH3-CD19 at 0.001 µM α-factor was 27.7 fold.

What about the increase of CAR+ Jurkat NFAT-Luc activation relative to the uninduced condition, yeast PTDH3-CD19 at 0.1 µM α-factor [2] of the same molecule?
The increase of CAR+ Jurkat NFAT-Luc activation relative to the uninduced condition, yeast PTDH3-CD19 at 0.1 µM α-factor was 10.3 fold.

What about the increase of CAR+ Jurkat NFAT-Luc specific activation relative to the unstimulated condition, yeast PMFA2-CD19 at 0.01 µM α-factor [2] of the same molecule?
Its increase of CAR+ Jurkat NFAT-Luc specific activation relative to the unstimulated condition, yeast PMFA2-CD19 at 0.01 µM α-factor is 15.3 fold.

What about the increase of CAR+ Jurkat NFAT-Luc specific activation relative to the unstimulated condition, yeast PMFA2-CD19 at 0.1 µM α-factor [2] of the same molecule?
Its increase of CAR+ Jurkat NFAT-Luc specific activation relative to the unstimulated condition, yeast PMFA2-CD19 at 0.1 µM α-factor is 14.5 fold.

And the increase of CAR+ Jurkat NFAT-Luc specific activation relative to the unstimulated condition, yeast PMFA2-CD19 at 1 µM α-factor [2]?
Its increase of CAR+ Jurkat NFAT-Luc specific activation relative to the unstimulated condition, yeast PMFA2-CD19 at 1 µM α-factor is 13.6 fold.

What about the increase of CAR+ Jurkat NFAT-Luc specific activation relative to the unstimulated state, yeast PFUS1-CD19 at 1 µM α-factor [2] of the same molecule?
The increase of CAR+ Jurkat NFAT-Luc specific activation relative to the unstimulated state, yeast PFUS1-CD19 at 1 µM α-factor was 3.1 fold.

And the maximal fold specific activation of Jurkat NFAT-Luc cells without GPCR stimulation, yeast PMFA2-CD19, 90% CAR+ [2]?
Its maximal fold specific activation of Jurkat NFAT-Luc cells without GPCR stimulation, yeast PMFA2-CD19, 90% CAR+ is 5.5 fold.

What about the maximal fold specific activation of Jurkat NFAT-Luc cells without GPCR stimulation, yeast PPGK1-CD19, 100% CAR+ [2] of the same molecule?
The maximal fold specific activation of Jurkat NFAT-Luc cells without GPCR stimulation, yeast PPGK1-CD19, 100% CAR+ was 11.5 fold.

And the maximal fold specific activation of Jurkat NFAT-Luc cells without GPCR stimulation, yeast PTDH3-CD19, 70% CAR+ [2]?
The maximal fold specific activation of Jurkat NFAT-Luc cells without GPCR stimulation, yeast PTDH3-CD19, 70% CAR+ was 12.8 fold.

And the maximal specific activation of 100% CAR+ Jurkat NFAT-Luc cells (luciferase), yeast PFUS1-CD19 pre-stimulated with 1 µM α-factor [2]?
The maximal specific activation of 100% CAR+ Jurkat NFAT-Luc cells (luciferase), yeast PFUS1-CD19 pre-stimulated with 1 µM α-factor was 4.1 fold.

And the maximal specific activation of 100% CAR+ Jurkat NFAT-Luc cells (luciferase), yeast PMFA2-CD19 pre-stimulated with 0.01 µM α-factor [2]?
Its maximal specific activation of 100% CAR+ Jurkat NFAT-Luc cells (luciferase), yeast PMFA2-CD19 pre-stimulated with 0.01 µM α-factor is 22.3 fold.

What about the maximal specific activation of 100% CAR+ Jurkat NFAT-Luc cells (luciferase), yeast PTDH3-CD19 pre-stimulated with 0.1 µM α-factor [2] of the same molecule?
Its maximal specific activation of 100% CAR+ Jurkat NFAT-Luc cells (luciferase), yeast PTDH3-CD19 pre-stimulated with 0.1 µM α-factor is 61.9 fold.

What about the maximal specific activation of CAR+ Jurkat NFAT-Luc cells by yeast PTDH3-CD19 relative to NALM6 [2] of the same molecule?
Its maximal specific activation of CAR+ Jurkat NFAT-Luc cells by yeast PTDH3-CD19 relative to NALM6 is 2.2 fold.

And the maximal specific activation by NALM6 relative to any SCASA yeast aAPC without GPCR stimulation [3]?
Its maximal specific activation by NALM6 relative to any SCASA yeast aAPC without GPCR stimulation is 2.2 fold.

What about the peaking activation intensity of Jurkat NFAT-Luc cells co-cultured with NALM6, 90% CAR+ [3] of the same molecule?
Its peaking activation intensity of Jurkat NFAT-Luc cells co-cultured with NALM6, 90% CAR+ is 28.1 fold.

B1: PFIG.1: pheromone-responsive Saccharomyces cerevisiae promoter, SEQ ID NO: 9, processing module (yEGFP strain DIX25, CD19 strain DIX56) (nucleic acid, listed as Saccharomyces cerevisiae)
DNA: TTGAATGATCAACCAAACGCCGATATAGTCACTATTGGTGATAAAATTAAAATGCAGCTATTGAGAACCCATCCTAACAACATTAAATTGTCTATTAATGGAATTGGTAAAGATGCCCCAACTTTCCAAGAATCTGCTTTGATTGCCGATAAGTTATTGAGTGTCATGAAGGCCGGCACTTACCCAAAGATTTCCATTTTCTACAATGACCCAGTGTCTTCCCTATCTTTTGAACCATCTGAAAAACCGATCTTTAACGCCAAGACCATTGAACAATCCCCATCATTCGGCAAATTTGAGATCGACACGGACGCAAACGTTCCAAGAGATTTGTTTGAATATACTTTGGCTAACCAAATGTTGACAGCAATGGCTCAAGGTTATGCTGCTGAAATTTCCGCCAGAAGAAACGCTATGGATAACGCTTCCAAGAATGCCGGTGATATGATCAATCGTTACTCTATCTTGTACAACAGAACAAGACAAGCTGTCATTACTAATGAACTGGTTGATATTATTACTGGTGCTTCCTCTTTGGGATGATAAAAAAATCACCCTGCATTGCCTCTTTATTTGACGTTGTTTTTGTAGAACATGAAACGAATTTTGACTTGATGAGACGAAGTATATATCCAAAGAATACCTTAAATAGAAAAGGAAAGATAATAAATACTAAACACTACTATATATTCAGGTAAAATACAAAAATTATAACATTTTTAAAACTTTTTTTTTTTGAAAGTCCTTCTCGCTTTAGGATTTTTTCCCATTAAGATTATGATGGTTTCATGTATGTGTCAGTTAAAAAAAATATGGCTAAGTAGCAATGAAACGAACCAAGAAAATGAAAACAATATATAGTGCTGTTGAAATAACAAAGACATTGGTATATATTTGTAAAATGTCTGTTAAATGTTTTTTATCTCAGGTTCTTGCTTGTCTTTGGTAGAAGAAATTATAGTAAACAAACAAACAAACAAACAAAAAAAAAAAAAAAAAA
What does the source list for B1?
maximum fold change of yEGFP, unnormalized ([4]; 1 μM α-factor (peak)): 516.8±83.0 fold; fold change of yEGFP, unnormalized ([4]; 100 μM α-factor): 482.6±98.5 fold; maximum fold change of yEGFP, SSC-normalized ([4]; 100 μM α-factor (peak)): 128.8±7.2 fold; fold change of induction of yEGFP, SSC-normalized ([4]; α-factor 0-100 μM, 5 hrs, excluding PRP-induced expression boost): 128.81±7.17 fold; CD19 level at unstimulated conditions (CD19; no GPCR stimulation): extremely low levels of CD19 at the limit of detection; fold upregulation of CD19 display relative to unstimulated condition (CD19; α-factor 0-100 μM, 20 hrs, promoter driving CD19 in DIX41 background): 629.6±98.6 fold
